Laboratory results taken from PMC11162321 (Structure (London, England : 1993), 2024).

Key:
[1] = target: T1, F-actin (rabbit skeletal muscle α-actin, filamentous) (rabbit (Oryctolagus cuniculus), UniProt P68135 1-377); test: other fluorescence titration
[2] = target: T1, F-actin (rabbit skeletal muscle …); test: fluorescence polarisation

B1: SipAC-Core (SipA residues 512-658), unlabelled (domain or fragment)
chain: TGPFSGLKFKQNSFLSTVPSVTNMHSMHFDARETFLGVIRKALEPDTSTPFPVRRAFDGLRAEILPNDTIKSAALKAQCSDIDKHPELKAKMETLKEVITHHPQKEKLAEIALQFAREAGLTRLKGETDYVLSNVLDGLIGDGSWRA
- Kd [1]: 81 nM

B2: FM-SipAC-ΔArm2 (SipA residues 425-658 labelled with fluorescein maleimide) (domain or fragment)
chain: TGETTSFDEVDGVTSKSIIGKPVQATVHGVDDNKQQSQTAEIVNVKPLASQLAGVENVKTDTLQSDTTVITGNKAGTTDNDNSQTDKTGPFSGLKFKQNSFLSTVPSVTNMHSMHFDARETFLGVIRKALEPDTSTPFPVRRAFDGLRAEILPNDTIKSAALKAQCSDIDKHPELKAKMETLKEVITHHPQKEKLAEIALQFAREAGLTRLKGETDYVLSNVLDGLIGDGSWRA
modifications: labeled with fluorescein maleimide (FM)
- Kd [2]: 120 nM
